# In patent US20120172293A1 (Takeda / Millennium, published 2012):
# Non-standard residues stand in square brackets, D forms with d. *: point of attachment. X11 = ((1S)-1-carboxy-3-methylbutyl)carbamoyl, CC(C)C[C@H](NC(=O)*)C(=O)O; X10 = Tetrahydro‑2H‑pyran‑4‑yl‑carbamoyl, O=C(NC1CCOCC1)*; Phe(3-Me) = Cc1cccc(C[C@H](N)C(=O)O)c1; Phe(2-Me) = Cc1ccccc1C[C@H](N)C(=O)O; tBuAla = CC(C)(C)C[C@H](N)C(=O)O; Cha = N[C@@H](CC1CCCCC1)C(=O)O; Aib = CC(C)(N)C(=O)O
# T1: human Y2 receptor (human, UniProt P49146 1-381)
# T1 sequence (looked up): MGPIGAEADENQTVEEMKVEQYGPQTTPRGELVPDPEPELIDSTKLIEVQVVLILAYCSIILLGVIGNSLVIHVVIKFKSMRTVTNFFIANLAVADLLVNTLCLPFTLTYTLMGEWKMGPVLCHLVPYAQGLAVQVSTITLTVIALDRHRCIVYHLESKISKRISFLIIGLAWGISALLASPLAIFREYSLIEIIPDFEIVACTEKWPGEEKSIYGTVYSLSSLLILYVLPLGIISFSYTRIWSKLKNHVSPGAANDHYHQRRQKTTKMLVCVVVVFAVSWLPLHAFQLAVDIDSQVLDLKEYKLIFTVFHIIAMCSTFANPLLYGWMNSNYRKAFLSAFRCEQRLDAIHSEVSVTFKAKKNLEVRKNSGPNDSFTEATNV
# B1: [(1S)-1-carboxy-3-methylbutyl]carbamoyl-[D-Pro24, Cha27,36, Leu(Me)28, Lys30, Aib31]-PYY(23-36) (peptide)
# peptide: X11-S[dP]RH[Cha][tBuAla]NK[Aib]TRQR[Cha]-NH2
# SMILES: CC(C)C[C@H](NC(=O)N[C@@H](CO)C(=O)N1CCC[C@@H]1C(=O)N[C@@H](CCCNC(=N)N)C(=O)N[C@@H](Cc1c[nH]cn1)C(=O)N[C@@H](CC1CCCCC1)C(=O)N[C@@H](CC(C)(C)C)C(=O)N[C@@H](CC(N)=O)C(=O)N[C@@H](CCCCN)C(=O)NC(C)(C)C(=O)N[C@H](C(=O)N[C@@H](CCCNC(=N)N)C(=O)N[C@@H](CCC(N)=O)C(=O)N[C@@H](CCCNC(=N)N)C(=O)N[C@@H](CC1CCCCC1)C(N)=O)[C@@H](C)O)C(=O)O
# notes: also called compound No. 253
# B2: Ac-[D-Pro24, Cha27, Leu(Me)28, Lys30, Aib31, Phe(3Me)36]-PYY(23-36) (peptide)
# peptide: Ac-S[dP]RH[Cha][tBuAla]NK[Aib]TRQR[Phe(3-Me)]-NH2
# SMILES: CC(=O)N[C@@H](CO)C(=O)N1CCC[C@@H]1C(=O)N[C@@H](CCCNC(=N)N)C(=O)N[C@@H](Cc1c[nH]cn1)C(=O)N[C@@H](CC1CCCCC1)C(=O)N[C@@H](CC(C)(C)C)C(=O)N[C@@H](CC(N)=O)C(=O)N[C@@H](CCCCN)C(=O)NC(C)(C)C(=O)N[C@H](C(=O)N[C@@H](CCCNC(=N)N)C(=O)N[C@@H](CCC(N)=O)C(=O)N[C@@H](CCCNC(=N)N)C(=O)N[C@@H](Cc1cccc(C)c1)C(N)=O)[C@@H](C)O
# notes: also called compound No. 258
# B3: Ac-[D-Pro24, Cha27, Leu(Me)28, Lys30, Aib31, Phe(2Me)36]-PYY(23-36) (peptide)
# peptide: Ac-S[dP]RH[Cha][tBuAla]NK[Aib]TRQR[Phe(2-Me)]-NH2
# SMILES: CC(=O)N[C@@H](CO)C(=O)N1CCC[C@@H]1C(=O)N[C@@H](CCCNC(=N)N)C(=O)N[C@@H](Cc1c[nH]cn1)C(=O)N[C@@H](CC1CCCCC1)C(=O)N[C@@H](CC(C)(C)C)C(=O)N[C@@H](CC(N)=O)C(=O)N[C@@H](CCCCN)C(=O)NC(C)(C)C(=O)N[C@H](C(=O)N[C@@H](CCCNC(=N)N)C(=O)N[C@@H](CCC(N)=O)C(=O)N[C@@H](CCCNC(=N)N)C(=O)N[C@@H](Cc1ccccc1C)C(N)=O)[C@@H](C)O
# notes: also called compound No. 255
# B4: Tetrahydro-2H-pyran-4-yl-carbamoyl-[D-Pro24, Cha27,36, Leu(Me)28, Lys30, Aib31]-PYY(23-36) (peptide)
# peptide: X10-S[dP]RH[Cha][tBuAla]NK[Aib]TRQR[Cha]-NH2
# SMILES: C[C@@H](O)[C@H](NC(=O)C(C)(C)NC(=O)[C@H](CCCCN)NC(=O)[C@H](CC(N)=O)NC(=O)[C@H](CC(C)(C)C)NC(=O)[C@H](CC1CCCCC1)NC(=O)[C@H](Cc1c[nH]cn1)NC(=O)[C@H](CCCNC(=N)N)NC(=O)[C@H]1CCCN1C(=O)[C@H](CO)NC(=O)NC1CCOCC1)C(=O)N[C@@H](CCCNC(=N)N)C(=O)N[C@@H](CCC(N)=O)C(=O)N[C@@H](CCCNC(=N)N)C(=O)N[C@@H](CC1CCCCC1)C(N)=O
# notes: also called compound No. 229
# B5: Ac-[D-Pro24, Cha27,28, Aib31, DL-Phe(2,6-Me2)36]-PYY(23-36) (peptide)
# peptide: Ac-S[dP]RH[Cha][Cha]NL[Aib]TRQRX-NH2
# modifications: not fully specified (residue 14); printed as Ac-Ser-D-Pro-Arg-His-Cha-Cha-Asn-Leu-Aib-Thr-Arg-Gln-Arg-DL-Phe(2,6-Me2)-NH2; also: residue 36 is DL racemic
# notes: residue 36 is a DL racemate; also called compound No. 201
# B6: Tetrahydro-2H-pyran-4-yl-carbamoyl-[Glu23, D-Pro24, Cha27,28,36, Lys30, Aib31]-PYY(23-36) (peptide)
# peptide: X10-E[dP]RH[Cha][Cha]NK[Aib]TRQR[Cha]-NH2
# SMILES: C[C@@H](O)[C@H](NC(=O)C(C)(C)NC(=O)[C@H](CCCCN)NC(=O)[C@H](CC(N)=O)NC(=O)[C@H](CC1CCCCC1)NC(=O)[C@H](CC1CCCCC1)NC(=O)[C@H](Cc1c[nH]cn1)NC(=O)[C@H](CCCNC(=N)N)NC(=O)[C@H]1CCCN1C(=O)[C@H](CCC(=O)O)NC(=O)NC1CCOCC1)C(=O)N[C@@H](CCCNC(=N)N)C(=O)N[C@@H](CCC(N)=O)C(=O)N[C@@H](CCCNC(=N)N)C(=O)N[C@@H](CC1CCCCC1)C(N)=O
# notes: also called compound No. 230
# B7: [(1S)-1-carboxy-3-methylbutyl]carbamoyl-[Glu23, D-Pro24, Cha27,28,36, Lys30, Aib31]-PYY(23-36) (peptide)
# peptide: X11-E[dP]RH[Cha][Cha]NK[Aib]TRQR[Cha]-NH2
# SMILES: CC(C)C[C@H](NC(=O)N[C@@H](CCC(=O)O)C(=O)N1CCC[C@@H]1C(=O)N[C@@H](CCCNC(=N)N)C(=O)N[C@@H](Cc1c[nH]cn1)C(=O)N[C@@H](CC1CCCCC1)C(=O)N[C@@H](CC1CCCCC1)C(=O)N[C@@H](CC(N)=O)C(=O)N[C@@H](CCCCN)C(=O)NC(C)(C)C(=O)N[C@H](C(=O)N[C@@H](CCCNC(=N)N)C(=O)N[C@@H](CCC(N)=O)C(=O)N[C@@H](CCCNC(=N)N)C(=O)N[C@@H](CC1CCCCC1)C(N)=O)[C@@H](C)O)C(=O)O
# notes: also called compound No. 254
# Biological target: T1, human Y2 receptor
# Test: cell-based or functional assay
row,GBA EC50 Ratio ([35S]GTPγS binding),Binder
1,0.85 EC50 compound/EC50 PYY(3-36),B1
2,0.78 EC50 compound/EC50 PYY(3-36),B2
3,0.86 EC50 compound/EC50 PYY(3-36),B3
4,0.5 EC50 compound/EC50 PYY(3-36),B4
5,2 EC50 compound/EC50 PYY(3-36),B5
6,2.5 EC50 compound/EC50 PYY(3-36),B6
7,1.5 EC50 compound/EC50 PYY(3-36),B7

# Biological target: T1, human Y2 receptor
# Test: RBA: displacement of [125I]-PYY from hY2R/CHO membranes
# Procedure: After incubation at room temperature for 60 minutes, the mixture was filtered through the cell harvester FilterMate (PerkinElmer) using UniFilter-96 GF/C treated with polyethylenimine (PEI) solution (20 mM Tris, 0.3% PEI, pH 7.4), and the filter was washed 3 times with a filtering buffer (50 mM Tris, 5 mM MgCl₂, 150 mM NaCl, 0.03% NaN₃, 0.05% CHAPS, pH 7.4). Thereafter, UniFilter-96 GF/C was dried in a mechanical drier for 1 hour, 15 μl of the liquid scintillator MicroScint O (PerkinElmer) was added to each well, and a measurement was taken using TopCount (PerkinElmer). The data obtained were analyzed using Prism to calculate the IC₅₀ value.
row,IC50 Ratio,Binder
1,1.1 IC50 compound/IC50 PYY(3-36),B1
2,0.61 IC50 compound/IC50 PYY(3-36),B2
3,0.8 IC50 compound/IC50 PYY(3-36),B3
4,0.45 IC50 compound/IC50 PYY(3-36),B4
5,1.6 IC50 compound/IC50 PYY(3-36),B5
6,0.89 IC50 compound/IC50 PYY(3-36),B6
7,2.8 IC50 compound/IC50 PYY(3-36),B7
